Laboratory results: patent US20110091971A1, “Differentiation of Pluripotent Stem Cells” (priority 2008, published 2011)
Substitutions are numbered along the chain they refer to.

B1: ACTN34: activin A variant peptide, SEQ ID 35 (protein)
chain: GLECDGKVNYCCKKQLFVSFKDIGWNDWIIAPSGYHANHCTGKCPSHIAGTSGSSLSFHSTVINHYRMRGHSPFSDLGSCCVPTKLRPMSMLYYDDGQNIIKKDIQNMIVEECGCS
B2: ACTN2: activin A variant peptide, SEQ ID 3 (protein)
chain: B1 chain with Y10L, L16N, H39E, V82I
B3: ACTN58: activin A variant peptide, SEQ ID 59 (protein)
chain: GLECDGKVNICCKKQSFGQTKDIGWNDWIIAPSGYHGGGCTGECPSHIAGTSGSSLSFHSTVINHYRMRGHSPWANLKSCCSPTKLRPMSMLYYDDGQNIIKKDIQNMKVEECGCT
B4: ACTN80: activin A variant peptide, SEQ ID 81 (protein)
chain: B3 chain with T41S, S82A, T116V
B5: ACTN67: activin A variant peptide, SEQ ID 68 (protein)
chain: B3 chain with T41S
B6: ACTN68: activin A variant peptide, SEQ ID 69 (protein)
chain: B3 chain with Q19K, T20A, W74F, N107G
B7: ACTN83: activin A variant peptide, SEQ ID 84 (protein)
chain: B3 chain with Q19R, T20A, W74F, N107G
B8: ACTN70: activin A variant peptide, SEQ ID 71 (protein)
chain: B3 chain with S16L, T20A, T41S, W74V, N107G, K109V
B9: ACTN66: activin A variant peptide, SEQ ID 67 (protein)
chain: B3 chain with S16M, T20A, K109V
B10: ACTN86: activin A variant peptide, SEQ ID 87 (protein)
chain: B3 chain with Q19K, T41S, K109V
B11: ACTN73: activin A variant peptide, SEQ ID 74 (protein)
chain: B3 chain with T20A, T41S, W74F, N107G, K109V
B12: ACTN92: activin A variant peptide, SEQ ID 93 (protein)
chain: B3 chain with T20A, T41S, W74F, N107G
B13: ACTN88: activin A variant peptide, SEQ ID 89 (protein)
chain: B3 chain with T41S, K109V
B14: ACTN93: activin A variant peptide, SEQ ID 94 (protein)
chain: B3 chain with W74F
B15: ACTN37: activin A variant peptide, SEQ ID 38 (protein)
chain: B1 chain with Y10L, L16D, H39R, T41S, L77M, S79A, V82I

test system: H1 or H9 human embryonic stem cells; assay: Activin A bioassay: differentiation of human embryonic stem cells to definitive endoderm, cell number and SOX17 intensity by high content analysis (96-well, four days); assay type: cell-based; conditions: concentrated supernatant (10x; ACTD3 4x), assay dilution 1:20;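 as to Cell Number average: Raw total cell count per well from high content imaging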;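 as to Sox 17 Intensity average: total fluorescence of the cell multiplied by cell area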
Outline: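 Read-out was cell count and integrated SOX17 immunofluorescence by high-content imaging, with each well divided by the mean of the 100 ng/ml activin A control. Over the four-day culture, test samples were given in DMEM:F12 with 0.5% FCS plus 20 ng/ml Wnt3a for the first two days and in 2% FCS alone for the last two. Cells were H1 or H9 hESC clusters grown on Matrigel.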

Question: With B1 as the molecule, how does the “Cell Number average” value read?
Answer: 11794

Question: What about the “Sox 17 Intensity average” value of the same molecule?
Answer: 8.08E+07

same assay, conditions: concentrated supernatant (10x; ACTD3 4x), assay dilution 1:20; control = R&D Sys Activin A 100 ng/ml

Question: B1 was tested. Which “Sox 17 Intensity % of control” value did it give?
Answer: 185%

same assay, conditions: supernatant concentration 1x, assay dilution 1:20

Question: How did the “Cell Number average” value turn out when B2 was run?
Answer: 4057

Question: What about the “Sox 17 Intensity average” value of the same molecule?
Answer: 1.756E+07

same assay, conditions: supernatant concentration 1x, assay dilution 1:20; control = R&D Sys Activin A 100 ng/ml on same plate

Question: With B2 as the molecule, how does the “Sox 17 Intensity % of control” value read?
Answer: 9.5%

same assay, conditions: supernatant concentration 10x, assay dilution 1:20

Question: B2 was tested. Which “Cell Number average” value did it give?
Answer: 2965

Question: And the “Sox 17 Intensity average” value?
Answer: 2.299E+07

same assay, conditions: supernatant concentration 10x, assay dilution 1:20; assay plates #007, #009, #010

Question: How did the “Cell Number average” value turn out when B3 was run?
Answer: 11078

Question: What about the “Sox 17 Intensity average” value of the same molecule?
Answer: 6.70E+05

Question: B4 was tested. Which “Cell Number average” value did it give?
Answer: 9898

Question: And the “Sox 17 Intensity average” value?
Answer: 4.08E+05

Question: How did the “Cell Number average” value turn out when B5 was run?
Answer: 12653

Question: And the “Sox 17 Intensity average” value?
Answer: 4.44E+05

Question: What does the source list for B6?
Answer: Cell Number average: 13395; Sox 17 Intensity average: 1.43E+06

Question: With B7 as the molecule, how does the “Cell Number average” value read?
Answer: 12084

Question: What about the “Sox 17 Intensity average” value of the same molecule?
Answer: 5.39E+05

Question: For B8, which “Cell Number average” value is on record?
Answer: 12551

Question: And the “Sox 17 Intensity average” value?
Answer: 9.67E+05

Question: Which results are given for B9?
Answer: Cell Number average: 13360; Sox 17 Intensity average: 4.84E+05

Question: With B10 as the molecule, how does the “Cell Number average” value read?
Answer: 11821

Question: What about the “Sox 17 Intensity average” value of the same molecule?
Answer: 7.45E+05

Question: Which results are given for B11?
Answer: Cell Number average: 10569; Sox 17 Intensity average: 8.27E+05

Question: With B12 as the molecule, how does the “Cell Number average” value read?
Answer: 14298

Question: What about the “Sox 17 Intensity average” value of the same molecule?
Answer: 5.60E+05

Question: What does the source list for B13?
Answer: Cell Number average: 11583; Sox 17 Intensity average: 6.21E+05

Question: How did the “Cell Number average” value turn out when B14 was run?
Answer: 13409

Question: What about the “Sox 17 Intensity average” value of the same molecule?
Answer: 5.87E+05

Question: Which results are given for B1?
Answer: Cell Number average: 10063; Sox 17 Intensity average: 5.69E+07

Question: B15 was tested. Which “Cell Number average” value did it give?
Answer: 3957

Question: And the “Sox 17 Intensity average” value?
Answer: 1.35E+06

same assay, conditions: supernatant concentration 10x, assay dilution 1:20; control = R&D Sys Activin A 100 ng/ml on same plate

Question: B3 was tested. Which “Sox 17 Intensity % of control” value did it give?
Answer: 3.0%

Question: Which “Sox 17 Intensity % of control” value does the source give for B4 here?
Answer: 1.8%

Question: Which “Sox 17 Intensity % of control” value does the source give for B5 here?
Answer: 2.0%

Question: For B6, which “Sox 17 Intensity % of control” value is on record?
Answer: 6.5%

Question: How did the “Sox 17 Intensity % of control” value turn out when B7 was run?
Answer: 2.4%

Question: For B8, which “Sox 17 Intensity % of control” value is on record?
Answer: 4.4%

Question: For B9, which “Sox 17 Intensity % of control” value is on record?
Answer: 2.2%

Question: With B10 as the molecule, how does the “Sox 17 Intensity % of control” value read?
Answer: 3.4%

Question: B11 was tested. Which “Sox 17 Intensity % of control” value did it give?
Answer: 3.7%

Question: For B12, which “Sox 17 Intensity % of control” value is on record?
Answer: 2.5%

Question: For B13, which “Sox 17 Intensity % of control” value is on record?
Answer: 2.8%

Question: How did the “Sox 17 Intensity % of control” value turn out when B14 was run?
Answer: 2.7%

Question: With B1 as the molecule, how does the “Sox 17 Intensity % of control” value read?
Answer: 257.4%

Question: How did the “Sox 17 Intensity % of control” value turn out when B2 was run?
Answer: 12.5%

Question: With B15 as the molecule, how does the “Sox 17 Intensity % of control” value read?
Answer: 6.1%

same assay, conditions: supernatant concentration 10x, assay dilution 1:40

Question: What does the source list for B2?
Answer: Cell Number average: 2232; Sox 17 Intensity average: 1.280E+07

same assay, conditions: supernatant concentration 10x, assay dilution 1:40; control = R&D Sys Activin A 100 ng/ml on same plate

Question: B2 was tested. Which “Sox 17 Intensity % of control” value did it give?
Answer: 7.0%

same assay, conditions: supernatant concentration 50x, assay dilution 1:20; assay plates #008, #009

Question: Which results are given for B3?
Answer: Cell Number average: 13214; Sox 17 Intensity average: 3.78E+06

Question: B4 was tested. Which “Cell Number average” value did it give?
Answer: 14686

Question: And the “Sox 17 Intensity average” value?
Answer: 3.52E+06

Question: How did the “Cell Number average” value turn out when B5 was run?
Answer: 14821

Question: What about the “Sox 17 Intensity average” value of the same molecule?
Answer: 3.50E+06

Question: B6 was tested. Which “Cell Number average” value did it give?
Answer: 15926

Question: And the “Sox 17 Intensity average” value?
Answer: 1.83E+06

Question: With B7 as the molecule, how does the “Cell Number average” value read?
Answer: 15829

Question: What about the “Sox 17 Intensity average” value of the same molecule?
Answer: 9.01E+06

Question: With B8 as the molecule, how does the “Cell Number average” value read?
Answer: 16071

Question: And the “Sox 17 Intensity average” value?
Answer: 3.20E+06

Question: For B9, which “Cell Number average” value is on record?
Answer: 16460

Question: What about the “Sox 17 Intensity average” value of the same molecule?
Answer: 3.39E+06

Question: With B10 as the molecule, how does the “Cell Number average” value read?
Answer: 17034

Question: What about the “Sox 17 Intensity average” value of the same molecule?
Answer: 2.34E+06

Question: For B11, which “Cell Number average” value is on record?
Answer: 16351

Question: What about the “Sox 17 Intensity average” value of the same molecule?
Answer: 3.13E+06

Question: With B12 as the molecule, how does the “Cell Number average” value read?
Answer: 15009

Question: What about the “Sox 17 Intensity average” value of the same molecule?
Answer: 3.32E+06

Question: Which “Cell Number average” value does the source give for B13 here?
Answer: 15317

Question: And the “Sox 17 Intensity average” value?
Answer: 2.87E+06

Question: Which results are given for B14?
Answer: Cell Number average: 15900; Sox 17 Intensity average: 2.67E+06

Question: B1 was tested. Which “Cell Number average” value did it give?
Answer: 12163

Question: And the “Sox 17 Intensity average” value?
Answer: 1.47E+08

Question: Which results are given for B15?
Answer: Cell Number average: 2902; Sox 17 Intensity average: 5.89E+06

same assay, conditions: supernatant concentration 50x, assay dilution 1:20; control = R&D Sys Activin A 100 ng/ml on same plate

Question: With B3 as the molecule, how does the “Sox 17 Intensity % of control” value read?
Answer: 6.8%

Question: For B4, which “Sox 17 Intensity % of control” value is on record?
Answer: 6.4%

Question: With B5 as the molecule, how does the “Sox 17 Intensity % of control” value read?
Answer: 6.3%

Question: Which “Sox 17 Intensity % of control” value does the source give for B6 here?
Answer: 3.3%

Question: For B7, which “Sox 17 Intensity % of control” value is on record?
Answer: 16.3%

Question: B8 was tested. Which “Sox 17 Intensity % of control” value did it give?
Answer: 5.8%

Question: With B9 as the molecule, how does the “Sox 17 Intensity % of control” value read?
Answer: 6.1%

Question: How did the “Sox 17 Intensity % of control” value turn out when B10 was run?
Answer: 4.2%

Question: With B11 as the molecule, how does the “Sox 17 Intensity % of control” value read?
Answer: 5.7%

Question: B12 was tested. Which “Sox 17 Intensity % of control” value did it give?
Answer: 6.0%

Question: Which “Sox 17 Intensity % of control” value does the source give for B13 here?
Answer: 5.2%

Question: With B14 as the molecule, how does the “Sox 17 Intensity % of control” value read?
Answer: 4.8%

Question: B1 was tested. Which “Sox 17 Intensity % of control” value did it give?
Answer: 266.9%

Question: B15 was tested. Which “Sox 17 Intensity % of control” value did it give?
Answer: 10.6%
